Target: full length Trk-A with a C-terminal (GGS)5 linker and eYFP or mTurquoise (human) (UniProt P04629)
Test: FRET or BRET

Sequence of full length Trk-A with a C-terminal (GGS)5 linker and eYFP or mTurquoise (P04629 33-796): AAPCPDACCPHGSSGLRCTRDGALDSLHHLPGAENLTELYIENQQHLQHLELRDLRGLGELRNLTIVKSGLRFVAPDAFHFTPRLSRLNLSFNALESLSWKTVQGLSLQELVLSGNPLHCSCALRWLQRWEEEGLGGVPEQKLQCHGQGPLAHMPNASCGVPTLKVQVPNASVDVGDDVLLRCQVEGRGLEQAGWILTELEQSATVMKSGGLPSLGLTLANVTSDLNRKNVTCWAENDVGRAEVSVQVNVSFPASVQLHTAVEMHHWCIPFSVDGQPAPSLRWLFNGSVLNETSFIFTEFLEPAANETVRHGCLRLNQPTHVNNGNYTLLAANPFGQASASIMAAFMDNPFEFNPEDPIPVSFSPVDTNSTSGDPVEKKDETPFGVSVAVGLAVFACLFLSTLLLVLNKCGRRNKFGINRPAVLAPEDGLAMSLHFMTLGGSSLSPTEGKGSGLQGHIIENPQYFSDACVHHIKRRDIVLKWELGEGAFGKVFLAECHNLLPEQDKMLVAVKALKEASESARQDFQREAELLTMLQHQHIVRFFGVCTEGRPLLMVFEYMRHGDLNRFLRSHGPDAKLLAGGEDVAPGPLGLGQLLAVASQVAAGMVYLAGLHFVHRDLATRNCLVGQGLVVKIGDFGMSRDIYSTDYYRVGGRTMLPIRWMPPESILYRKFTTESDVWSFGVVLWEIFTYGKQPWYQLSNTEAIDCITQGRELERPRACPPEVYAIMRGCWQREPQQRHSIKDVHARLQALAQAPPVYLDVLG

stoichiometry N: 2
Substance: full length Trk-A with a C-terminal (GGS)5 linker and eYFP or mTurquoise (from UniProt P04629 33-796) (receptor)

— PMC6918676
